Results reported in patent publication US20060002951.

Tests used:
[1] = biological target: wild-type HIV-1 Gag expressed from the hGag plasmid
[2] = biological target: HIV-1 Vif (virion infectivity factor)
[3] = biological target: Gag of HIV-1 BH10 expressed from BH10.P-.Vif- or BH10.FS-.Vif- proviral DNA, P03347
[4] = biological target: mutant Gag of ZWt-p6.Vif-, in which the nucleocapsid sequence has been replaced with a yeast leucine zipper domain

B1: HA-tagged APOBEC3G deletion mutant Δ246-384 (protein)
chain: MKPHFRNTVERMYRDTFSYNFYNRPILSRRNTVWLCYEVKTKGPSRPPLDAKIFRGQVYSELKYHPEMRFFHWFSKWRKLHRDQEYEVTWYISWSPCTKCTRDMATFLAEDPKVTLTIFVARLYYFWDPDYQEALRSLCQKRDGPRATMKIMNYDEFQHCWSKFVYSQRELFEPWNNLPKYYILLHIMLGEILRHSMDPPTFTFNFNNEPWVRGRHETYLCYEVERMHNDTWVLLNQRRGFLCNQ
viral content relative to wild type APOBEC3G (Gag VLPs, Western blot) [1]: the viral content of these N-terminal fragments is >60% of wild type APOBEC3G

B2: HA-tagged APOBEC3G deletion mutant Δ1-104 (protein)
chain: MATFLAEDPKVTLTIFVARLYYFWDPDYQEALRSLCQKRDGPRATMKIMNYDEFQHCWSKFVYSQRELFEPWNNLPKYYILLHIMLGEILRHSMDPPTFTFNFNNEPWVRGRHETYLCYEVERMHNDTWVLLNQRRGFLCNQAPHKHGFLEGRHAELCFLDVIPFWKLDLDQDYRVTCFTSWSPCFSCAQEMAKFISKNKHVSLCIFTARIYDDQGRCQEGLRTLAEAGAKISIMTYSEFKHCWDTFVDHQGCPFQPWDGLDEHSQDLSGRLRAILQNQEN
incorporation into Gag VLPs (APOBEC3G:Gag ratio, Western blot) [1]: deletion of the N-terminal 104 amino acids or the C-terminal 157-384 amino acids (See SEQ ID NO: 21) does not affect the ability of APOBEC3G to be packaged into Gag VLPs

B3: HA-tagged APOBEC3G deletion mutant Δ157-384 (protein)
chain: MKPHFRNTVERMYRDTFSYNFYNRPILSRRNTVWLCYEVKTKGPSRPPLDAKIFRGQVYSELKYHPEMRFFHWFSKWRKLHRDQEYEVTWYISWSPCTKCTRDMATFLAEDPKVTLTIFVARLYYFWDPDYQEALRSLCQKRDGPRATMKIMNYDE
cytoplasmic expression of full-length hA3G in the presence of Vif (Western blot with anti-HA) [2]: an increase in the cytoplasmic expression of full-length hA3G was detected with an increase in expression of hA3G 1-156 or hA3G 157-384, respectively | incorporation into Gag VLPs (APOBEC3G:Gag ratio, Western blot) [1]: deletion of the N-terminal 104 amino acids or the C-terminal 157-384 amino acids (See SEQ ID NO: 21) does not affect the ability of APOBEC3G to be packaged into Gag VLPs | viral content relative to wild type APOBEC3G (Gag VLPs, Western blot) [1]: the viral content of these N-terminal fragments is >60% of wild type APOBEC3G

B4: HA-tagged APOBEC3G deletion mutant Δ1-156 (protein)
chain: MFQHCWSKFVYSQRELFEPWNNLPKYYILLHIMLGEILRHSMDPPTFTFNFNNEPWVRGRHETYLCYEVERMHNDTWVLLNQRRGFLCNQAPHKHGFLEGRHAELCFLDVIPFWKLDLDQDYRVTCFTSWSPCFSCAQEMAKFISKNKHVSLCIFTARIYDDQGRCQEGLRTLAEAGAKISIMTYSEFKHCWDTFVDHQGCPFQPWDGLDEHSQDLSGRLRAILQNQEN
reduction in the ability to be degraded by Vif (ratio of expression with and without Vif, Western blot) [2]: the deletion of the N-terminal 156 or C-terminal 157-384 amino acids results in 80% and 90% reduction in the ability of the resulting fragments to be degraded by Vif, respectively | incorporation into Gag VLPs (APOBEC3G:Gag ratio, Western blot) [1]: the deletion of the N-terminal 156 amino acids abolishes its incorporation into viruses

B5: HA-tagged APOBEC3G deletion mutant Δ309-384 (protein)
chain: MKPHFRNTVERMYRDTFSYNFYNRPILSRRNTVWLCYEVKTKGPSRPPLDAKIFRGQVYSELKYHPEMRFFHWFSKWRKLHRDQEYEVTWYISWSPCTKCTRDMATFLAEDPKVTLTIFVARLYYFWDPDYQEALRSLCQKRDGPRATMKIMNYDEFQHCWSKFVYSQRELFEPWNNLPKYYILLHIMLGEILRHSMDPPTFTFNFNNEPWVRGRHETYLCYEVERMHNDTWVLLNQRRGFLCNQAPHKHGFLEGRHAELCFLDVIPFWKLDLDQDYRVTCFTSWSPCFSCAQEMAKFISKNKHVSLC
viral content relative to wild type APOBEC3G (Gag VLPs, Western blot) [1]: the viral content of these N-terminal fragments is >60% of wild type APOBEC3G

B6: wild-type human APOBEC3G with a fused HA tag at the C-terminus (protein)
chain: MKPHFRNTVERMYRDTFSYNFYNRPILSRRNTVWLCYEVKTKGPSRPPLDAKIFRGQVYSELKYHPEMRFFHWFSKWRKLHRDQEYEVTWYISWSPCTKCTRDMATFLAEDPKVTLTIFVARLYYFWDPDYQEALRSLCQKRDGPRATMKIMNYDEFQHCWSKFVYSQRELFEPWNNLPKYYILLHIMLGEILRHSMDPPTFTFNFNNEPWVRGRHETYLCYEVERMHNDTWVLLNQRRGFLCNQAPHKHGFLEGRHAELCFLDVIPFWKLDLDQDYRVTCFTSWSPCFSCAQEMAKFISKNKHVSLCIFTARIYDDQGRCQEGLRTLAEAGAKISIMTYSEFKHCWDTFVDHQGCPFQPWDGLDEHSQDLSGRLRAILQNQEN
incorporation of APOBEC3G into Gag VLPs (Western blot of VLP lysates) [1]: Gag alone is sufficient among the viral proteins for facilitating APOBEC3G incorporation | share of APOBEC3G in the membrane-bound fraction (sucrose floatation assay) [1]: in the presence of Gag (FIG. 5B), >90% of APOBEC3G is localized in the membrane-bound protein | ability of the viruses to package APOBEC3G (Western blots of viral lysates) [3]: BH10.FS-.Vif- can package APOBEC3G as efficiently as BH10.P- | ability of the viruses to package APOBEC3G (Western blots of viral lysates) [4]: the ability of ZWt-p6.Vif- to incorporate APOBEC3G is reduced 90% compared with BH10.FS-.Vif- | distribution of APOBEC3G between cytoplasm and membrane (sucrose floatation assay) [4]: the majority of APOBEC3G remains in the cytoplasm even though most Gag is found at membrane
